Target: T1, Protein A (UniProt P38507 37-477)
T1 construct: Precipitation reagent; also called Protein A-Sepharose
Test: Protein A-Sepharose precipitation, anti-kappa western blot
Description: In a different set of experiments the ability of the ligand Traps to multimerize in the presence of ligand was tested.

B1: gp130-CH1•IL-6Rα-κ (other)
chain 1: ELLDPCGYISPESPVVQLHSNFTAVCVLKEKCMDYFHVNANYIVWKTNHFTIPKEQYTIINRTASSVTFTDIASLNIQLTCNILTFGQLEQNVYGITIISGLPPEKPKNLSCIVNEGKKMRCEWDGGRETHLETNFTLKSEWATHKFADCKAKRDTPTSCTVDYSTVYFVNIEVWVEAENALGKVTSDHINFDPVYKVKPNPPHNLSVINSEELSSILKLTWTNPSIKSVIILKYNIQYRTKDASTWSQIPPEDTASTRSSFTVQDLKPFTEYVFRIRCMKEDGKGYWSDWSEEASGITYEDRPSKAPSFWYKIDPSHTQGYRTVQLVWKTLPPFEANGKILDYEVTLTRWKSHLQNYTVNATKLTVNLTNDRYLATLTVRNLVGKSDAAVLTIPACDFQATHPVMDLKAFPKDNMLWVEWTTPRESVKKYILEWCVLSDKAPCITDWQQEDGTVHRTYLRGNLAESKCYLITVTPVYADGPGSPESIKAYLKQAPPSKGPTVRTKKVGKNEAVLEWDQLPVDVQNGFIRNYTIFYRTIIGNETAVNVDSSHTEYTLSSLTSDTLYMVRMAAYTDEGGKDGPEFTFTTPKFAQGEIESGGQGTLVTVSSASTKGPSVFPLAPSSKSTSGGTAALGCLVKDYFPEPVTVSWNSGALTSGVHTFPAVLQSSGLYSLSSVVTVPSSSLGTQTYICNVNHKPSNTKVDKKVEPKSCDKTHT
chain 2: LAPRRCPAQEVARGVLTSLPGDSVTLTCPGVEPEDNATVHWVLRKPAAGSHPSRWAGMGRRLLLRSVQLHDSGNYSCYRAGRPAGTVHLLVDVPPEEPQLSCFRKSPLSNVVCEWGPRSTPSLTTKAVLLVRKFQNSPAEDFQEPCQYSQESQKFSCQLAVPEGDSSFYIVSMCVASSVGSKFSKTQTFQGCGILQPDPPANITVTAVARNPRWLSVTWQDPHSWNSSFYRLRFELRYRAERSKTFTTWMVKDLQHHCVIHDAWSGLRHVVQLRAQEEFGQGEWSEWSPEAMGTPWTESRSPPAENEVSTPMQALTTNKDDDNILFRDSANATSLPVQDAGTVAAPSVFIFPPSDEQLKSGTASVVCLLNNFYPREAKVQWKVDNALQSGNSQESVTEQDSKDSTYSLSSTLTLSKADYEKHKVYACEVTHQGLSSPVTKSFNRGEC
notes: the experiment prints gp130-CH1; also called G16K
B1: no binding.

Reference: patent publication US7083949
